In patent publication US20140294815A1 (NVIP, published 2014):

B1: caninised anti-TNF monoclonal antibody (SEQ ID NO:3 light chain plus SEQ ID NO:5 heavy chain), based on D2E7 (antibody, V domains shown)
VH: not shown
VL: DIVMTQSPASLSLSQEEKVTITCRASQGIRNYLAWYQQKPGQAPKLLIYAASTLQSGVPSRFSGSGSGTDFTLTISSLEPEDVAVYYCQRYNRAPYTFGQGTKVEIKR
notes: canine IgG-B heavy chain, kappa light chain; also called ca-HCB+ca-kLC; caninised (Ca) D2E7 based MAb
B2: caninised anti-huTNF MAb 148 (SEQ ID NO:18 plus SEQ ID NO:19) (antibody, V domains shown)
VH: EVQLVESGGGVVQPGGSLRLSCAASGFIFSSYAMRWVRQAPGKGLEWVAFMSYDGSNKKYADSVKGRFTISRDNSKNTLYLQMNSLRAEDTAVYYCARDRGIAAGGNYYYYGMDVWGQGTSVTVSS
VL: EIVMTQSPASLSLSPGEKATISCRASQSVYSYLAWYQQKPGQAPRLLIYDASNRATGVPSRFSGSGSGTDFTLTISSLEPEDVAVYYCQQPSNWPPFTFGPGTKVDIKR
notes: Expressed in CHO cells and purified by Protein A chromatography; also called ca148-HCB

Tests used:
[1] = target: T1, canine tumour necrosis factor alpha (canine, UniProt P51742 77-233); test: ELISA, canine TNFa coated, antibody 5 ug/ml to 0.05 ug/ml
T1 construct: Coated at 5 ug/ml in the ELISA; used at 1 ng/mL in the reporter assay; also called canine TNF; canine TNFa
T1 sequence (P51742 77-233 limits assumed): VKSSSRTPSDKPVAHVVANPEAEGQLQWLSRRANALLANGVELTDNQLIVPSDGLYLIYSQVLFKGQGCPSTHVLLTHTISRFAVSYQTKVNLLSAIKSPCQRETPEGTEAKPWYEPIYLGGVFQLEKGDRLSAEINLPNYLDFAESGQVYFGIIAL
Experimental: The resultant supernatants were purified on Protein A, analysed by SDS-PAGE (FIG. 10A) and tested for binding to canine TNFa (coated at 5 ug/ml; R&D systems) at the indicated concentrations of antibody (ug/ml) by ELISA and detected using anti-canine polyclonal antibody-horseradish peroxidase conjugate (Sigma A9042) (FIG. 10B). The negative control was the detection polyclonal on coated antigen alone.

human TNF = target: T2, human TNF (human, UniProt P01375 77-233); test: binding assay of FIG. 12(a) Panel B
T2 construct: also called huTNF
T2 sequence (P01375 77-233 limits assumed): as the sequence (P51742 77-233 limits assumed) above, with K2R, E21Q, S30N, T44R, I49V, D53E, F83I, T109A, L138R, N140D counted along it

[2] = target: T1, canine tumour necrosis factor alpha; test: binding assay of FIG. 12(a) Panel C, compared with the D2E7 based MAbs

Binder	binding result [1]	binding result (human TNF)	binding result [2]
B1	binds	binds	–
B2	–	binds	no binding
